In patent US20070065429A1 (Biogen, published 2007):

Columns and labels:
AP-Aβ = target: T1, AP-Aβ (UniProt P05187 23-511; P05067 672-699); assay: AP fusion binding to COS cells expressing NgR, saturation
T1 construct: Fusion of alkaline phosphatase and Aβ(1-28); The range 1-28 is Aβ numbering; also called AP-Aβ(1-28); soluble AP-Aβ(1-28)

Fluo-Aβ42 = target: T2, Fluo-Aβ42 (UniProt P05067 672-713, 'Fluo' label (kind and position not stated)); assay: Fluo-Aβ42 incubated 2 h at 4° C. with SKNMC cells expressing human NgR-1
T2 construct: also called fibrillogenic Aβ42 peptide

T1 sequence (P05187 other isoform, or with tags, fused parts or gaps): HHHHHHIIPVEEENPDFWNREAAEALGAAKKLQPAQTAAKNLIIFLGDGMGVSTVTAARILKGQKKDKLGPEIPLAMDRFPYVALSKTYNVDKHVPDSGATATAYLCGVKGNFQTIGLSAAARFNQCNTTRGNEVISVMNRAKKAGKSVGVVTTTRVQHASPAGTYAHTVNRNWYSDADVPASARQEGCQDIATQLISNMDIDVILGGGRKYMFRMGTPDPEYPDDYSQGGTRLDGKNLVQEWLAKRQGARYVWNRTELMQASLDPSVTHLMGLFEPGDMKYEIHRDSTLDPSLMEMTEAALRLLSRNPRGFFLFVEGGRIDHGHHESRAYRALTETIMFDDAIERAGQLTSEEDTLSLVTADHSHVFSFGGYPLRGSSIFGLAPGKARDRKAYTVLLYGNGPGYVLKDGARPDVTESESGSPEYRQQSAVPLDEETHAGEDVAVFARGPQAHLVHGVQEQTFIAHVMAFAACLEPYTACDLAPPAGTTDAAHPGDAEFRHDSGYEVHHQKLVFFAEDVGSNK

Kd (AP-Aβ) [nM]	binding result (Fluo-Aβ42)	Binder
60	–	NgR expressed in COS cells (receptor) CPGACVCYNEPKVTTSCPQQGLQAVPVGIPAASQRIFLHGNRISHVPAASFRACRNLTILWLHSNVLARIDAAAFTGLALLEQLDLSDNAQLRSVDPATFHGLGRLHTLHLDRCGLQELGPGLFRGLAALQYLYLQDNALQALPDDTFRDLGNLTHLFLHGNRISSVPERAFRGLHSLDRLLLHQNRVAHVHPHAFRDLGRLMTLYLFANNLSALPTEALAPLRALQYLRLNDNPWVCDCRARPLWAWLQKFRGSSSEVPCSLPQRLAGRDLKRLAANDLQGCAVATGPYHPIWTGRATDEEPLGLPKCCQPDAADKASVLEPGRPASAGNALKGRVPPGDSPPGNGSGPRHINDSPFGTLPGSAEPPLTAVRPEGSEPPGFPTSGPRRRPGCSRKNRTRSHCRLGQAGSGGGGTGDSEGS
–	binds	human NgR-1 expressed on human SKNMC cells (receptor, UniProt Q9BZR6 27-447, looked up, whole, on cells) CPGACVCYNEPKVTTSCPQQGLQAVPVGIPAASQRIFLHGNRISHVPAASFRACRNLTILWLHSNVLARIDAAAFTGLALLEQLDLSDNAQLRSVDPATFHGLGRLHTLHLDRCGLQELGPGLFRGLAALQYLYLQDNALQALPDDTFRDLGNLTHLFLHGNRISSVPERAFRGLHSLDRLLLHQNRVAHVHPHAFRDLGRLMTLYLFANNLSALPTEALAPLRALQYLRLNDNPWVCDCRARPLWAWLQKFRGSSSEVPCSLPQRLAGRDLKRLAANDLQGCAVATGPYHPIWTGRATDEEPLGLPKCCQPDAADKASVLEPGRPASAGNALKGRVPPGDSPPGNGSGPRHINDSPFGTLPGSAEPPLTAVRPEGSEPPGFPTSGPRRRPGCSRKNRTRSHCRLGQAGSGGGGTGDSEGS
